The text below walks through data of patent US20160158154A1 (GEORGIA TECH RESEARCH, published 2016).

Sequences and labels used below:
B1: His6-tagged ZE (peptide)
peptide: LEIEAAALEQENTALETEVAELEQEVQRLENIVSQYRTRYGPLRSHHHHHH
notes: It was co-expressed with ZR-ELP; also called His6ZE; His6-ZE
B2: ZR-ELP (arginine-rich leucine zipper motif ZR fused with an elastin-like polypeptide) (other)
chain: MKGSLEIRAAALRRRNTALRTRVAELRQRVQRLRNEVSQYETRYGPLGGGGSGGGGSGVPGVGVPGVGVPGFGVPGVGVPGVGVPGVGVPGVGVPGFGVPGVGVPGVGVPGVGVPGVGVPGFGVPGVGVPGVGVPGVGVPGVGVPGFGVPGVGVPGVGVPGVGVPGVGVPGFGVPGVGVPGVGVPGC
notes: Forms ZR/ZR homodimers when no ZE partner is present

Series [1] concerns the target B2. As to the kind of experiment: co-expression in E. coli. From the text:
to prevent degradation during expression (Park W M, et al., Angew. Chem. Int. Ed., 52 (31), 8098-8101 (2013); Zhang K, et., Chem Bio Chem, 10 (16), 2617-2619 (2009)). Co-expressed ZR-ELP, i.e. the fusion peptide having an amino acid sequence of […](G₄S)₂G[(VPGVG)₂VPGFG(VPGVG)₂]₅VPGC (SEQ ID NO:27) and His₆ZE form a protein complex His₆ZE/ZR-ELP, which is resistant to proteolysis in the cytoplasm. All plasmids (pQE60-His₆ZE/ZR-ELP, pQE60-mCherry-ZE, and pQE60-EGFP-Z₅) were transformed into E. coli strain AFIQ-BL21 for expression. All cell cultures were grown at 37° C. in 2× yeast extract and tryptone (YT) media containing ampicillin (200 mg/L) and chloramphenicol (34 mg/L). When the cell culture optical density at 600 nm reached 0.8, protein expression was induced by 1.0 mM of isopropylβ-thiogalactoside (IPTG). Cells were harvested by centrifugation after 5 hours of expression at 37° C.

Series [2] deals with the molecule itself. As to the kind of experiment: solution at 4 C; circular dichroism confirmed the coiled coil. On the procedure: The CD spectra of protein complexes were recorded on a Jasco J-810 spectropolarimeter (JASCO). Protein solution samples were prepared in PBS (pH 7.4), and measurements were performed in a 0.2 cm-length cuvette. The spectra were obtained in 1 nm increments within a wavelength range of 200-300 nm. Mean residue ellipticity was measured from protein solutions containing 5 μM of protein complexes at 4° C. Mean residue ellipticity was converted from accumulated spectra of five measurements for each sample. The peak at a wavelength of 222 nm indicated presence of α-helical coiled-coils of ZR/ZR and ZE/ZR.
A general note: Circular dichroism is the unequal absorption of left and right circularly polarised light.

Turning to B1, the binding result in series [1] is reported as “binds”.

As for B2, the binding result in series [2] is given as “binds”.
